Patent US20100280227A1
One block for each binder: values may come before it.

Legend:
Assay in all cases: shotgun alanine scan of phage-displayed BR3; F against wild type
[1] = molecular target: human BR3 displayed on phage, mutated at A22 in the alanine scan (human) (UniProt Q96RJ3)
[2] = molecular target: human BR3 displayed on phage, G36 alanine-scan mutant (human) (UniProt Q96RJ3)
[3] = molecular target: human BR3 displayed on phage, R30 alanine-scan mutant (human) (UniProt Q96RJ3)

- F value [1]: 45
B1: murine monoclonal antibody 11G9 (antibody, V domains shown)
VH: DVQLQESGPSLVKPSQTLSLTCSVTGDSITSGYWNWIRKFPGNKLEYMGYISYSGSTYYNPSLKSRISITRDTSKNQFYLQLLSVTTEDTATYYCAGLDGLYWYFDVWGAGTLVTVSS
VL: DIVMTQTPLSLPVSLGDQASISCRSSQSLVHSNGNTYLHWYLQKPGQSPKLLIYKVSNRFSGVPDRFSGSGSGTDFTLKISRVEAEDLGVYFCSQSTHVPPFTFGSGT

- F value [2]: 14
B2: murine monoclonal antibody 2.1 (antibody, V domains shown)
VH: EVQLQESGPSLVKPSQTLSLTCSVTGDSITRGYWNWIRKFPGNKLEFMGYINYSGTTYYNPSLKSRISITRDTSKNQYYLQLNSVTTEDTATYYCATPHTYGAMDYWGQGTTLTVSA
VL: DIVLTQSPVSLAVSLGQRATISCRASESVDDYGISFMHWYQQKPGQPPKLLIYRASDLESGIPARFSGSGSGTDFTLTINPVETDDVAIYYCQQTSKDPWTFGGGT

- F value [3]: 20
B3: V3-1m (antibody, mouse IgG2a, V domains shown)
VH: EVQLVESGGGLVQPGGSLRLSCAASGFTISSNSIHWVRQAPGKGLEWVAWITPSDGNTDYADSVKGRFTISADTSKNTAYLQMNSLRAEDTAVYYCARRVCYNRLGVCAGGMDYWGQGTLVTVSS
VL: DIQMTQSPSSLSASVGDRVTITCRASQDVSTAVAWYQQKPGKAPKLLIYSASFLYSGVPSRFSGSGSGTDFTLTISSLQPEDFATYYCQQSRITPPTFGQGTKVEIKR
